The sequences below were run on Escherichia coli TOP10 (assay: shrunken log2 fold change of peptide-encoding DNA abundance (4.5 h post-induction vs induction); higher = less antimicrobial activity (less host growth inhibition)). Details: time post-induction: 4.5 h; library: site-saturation at positions 5, 18, 19, 20.
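Also: peptides expressed intracellularly from a pBAD plasmid library in pooled LB shake-flask culture, induced with 0.3% L-arabinose, DNA abundance read by NGS, three biological replicates, DESeq2 with apeglm shrinkage.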

| Sequence | shrunken log2 fold change |
| --- | --- |
| RRIRIRPPRLPRPRPRPGIQPRP | -0.0834 |
| RRIRIRPPRLPRPRPRPGIRPRP | -0.0416 |
| RRIRIRPPRLPRPRPRPGKEPRP | -0.0221 |
| RRIRIRPPRLPRPRPRPGLAPRP | 0.201 |
| RRIRIRPPRLPRPRPRPGLIPRP | -0.627 |
| RRIRIRPPRLPRPRPRPGLNPRP | 1 |
| RRIRIRPPRLPRPRPRPGLRPRP | -0.0223 |
| RRIRIRPPRLPRPRPRPGMEPRP | -0.375 |
| RRIRIRPPRLPRPRPRPGMMPRP | -0.453 |
| RRIRIRPPRLPRPRPRPGNAPRP | -0.0762 |
| RRIRIRPPRLPRPRPRPGNGPRP | 0.0389 |
| RRIRIRPPRLPRPRPRPGNPPRP | -0.366 |
| RRIRIRPPRLPRPRPRPGQNPRP | -0.0607 |
| RRIRIRPPRLPRPRPRPGSHPRP | 0.141 |
| RRIRIRPPRLPRPRPRPGSIPRP | -0.471 |
| RRIRIRPPRLPRPRPRPGSMPRP | -0.501 |
| RRIRIRPPRLPRPRPRPGTAPRP | -0.0164 |
| RRIRIRPPRLPRPRPRPGTQPRP | -0.0235 |
| RRIRIRPPRLPRPRPRPGVEPRP | -0.0594 |
| RRIRIRPPRLPRPRPRPGVMPRP | -0.346 |
| RRIRIRPPRLPRPRPRPGVPPRP | -0.0807 |
| RRIRIRPPRLPRPRPRPGWPPRP | 0.353 |
| RRIRIRPPRLPRPRPRPGWYPRP | -0.221 |
| RRIRIRPPRLPRPRPRPGYHPRP | -0.298 |
| RRIRIRPPRLPRPRPRPGYNPRP | -1.28 |

| Sequence | shrunken log2 fold change |
| --- | --- |
| RRIRIRPPRLPRPRPRPHAHPRP | -0.554 |
| RRIRIRPPRLPRPRPRPHCCPRP | -0.642 |
| RRIRIRPPRLPRPRPRPHGRPRP | -0.0215 |
| RRIRIRPPRLPRPRPRPHHCPRP | -0.00699 |
| RRIRIRPPRLPRPRPRPHIIPRP | -0.614 |
| RRIRIRPPRLPRPRPRPHIKPRP | -1.12 |
| RRIRIRPPRLPRPRPRPHLAPRP | 0.0435 |
| RRIRIRPPRLPRPRPRPHLPPRP | -0.0411 |
| RRIRIRPPRLPRPRPRPHMLPRP | -0.943 |
| RRIRIRPPRLPRPRPRPHNTPRP | -0.961 |
| RRIRIRPPRLPRPRPRPHPEPRP | -0.023 |
| RRIRIRPPRLPRPRPRPHPIPRP | -0.265 |
| RRIRIRPPRLPRPRPRPHPKPRP | -0.258 |
| RRIRIRPPRLPRPRPRPHQFPRP | -0.525 |
| RRIRIRPPRLPRPRPRPHREPRP | -0.0487 |
| RRIRIRPPRLPRPRPRPHSAPRP | -0.143 |
| RRIRIRPPRLPRPRPRPHSCPRP | -0.0433 |
| RRIRIRPPRLPRPRPRPHSSPRP | -0.448 |
| RRIRIRPPRLPRPRPRPHVWPRP | -0.287 |
| RRIRIRPPRLPRPRPRPHWPPRP | 0.00237 |
| RRIRIRPPRLPRPRPRPIAVPRP | -0.0939 |
| RRIRIRPPRLPRPRPRPIAWPRP | 0.0253 |
| RRIRIRPPRLPRPRPRPICDPRP | -0.412 |
| RRIRIRPPRLPRPRPRPICEPRP | -0.0283 |
| RRIRIRPPRLPRPRPRPICMPRP | -0.407 |

| Sequence | shrunken log2 fold change |
| --- | --- |
| RRIRIRPPRLPRPRPRPICRPRP | -0.107 |
| RRIRIRPPRLPRPRPRPIDDPRP | 0.0145 |
| RRIRIRPPRLPRPRPRPIDFPRP | -0.0103 |
| RRIRIRPPRLPRPRPRPIDVPRP | 0.00859 |
| RRIRIRPPRLPRPRPRPIFYPRP | -0.775 |
| RRIRIRPPRLPRPRPRPIGEPRP | 0.0399 |
| RRIRIRPPRLPRPRPRPIHNPRP | -0.936 |
| RRIRIRPPRLPRPRPRPIILPRP | -0.646 |
| RRIRIRPPRLPRPRPRPIIRPRP | -0.453 |
| RRIRIRPPRLPRPRPRPIIYPRP | -0.396 |
| RRIRIRPPRLPRPRPRPIKQPRP | 0.00391 |
| RRIRIRPPRLPRPRPRPILTPRP | -0.854 |
| RRIRIRPPRLPRPRPRPIMFPRP | -0.314 |
| RRIRIRPPRLPRPRPRPIMHPRP | -0.252 |
| RRIRIRPPRLPRPRPRPIMIPRP | -0.0324 |
| RRIRIRPPRLPRPRPRPIMVPRP | -0.412 |
| RRIRIRPPRLPRPRPRPINNPRP | -0.751 |
| RRIRIRPPRLPRPRPRPIPIPRP | -0.317 |
| RRIRIRPPRLPRPRPRPIRFPRP | -1.35 |
| RRIRIRPPRLPRPRPRPISPPRP | 0.0361 |
| RRIRIRPPRLPRPRPRPISRPRP | -0.0044 |
| RRIRIRPPRLPRPRPRPISYPRP | -0.197 |
| RRIRIRPPRLPRPRPRPITIPRP | -0.436 |
| RRIRIRPPRLPRPRPRPIVGPRP | 0.00911 |
| RRIRIRPPRLPRPRPRPIVIPRP | -0.103 |

| Sequence | shrunken log2 fold change |
| --- | --- |
| RRIRIRPPRLPRPRPRPIVVPRP | -0.666 |
| RRIRIRPPRLPRPRPRPIWHPRP | -0.455 |
| RRIRIRPPRLPRPRPRPIWIPRP | -0.269 |
| RRIRIRPPRLPRPRPRPIWYPRP | -1.64 |
| RRIRIRPPRLPRPRPRPKAQPRP | -0.0442 |
| RRIRIRPPRLPRPRPRPKCMPRP | -0.229 |
| RRIRIRPPRLPRPRPRPKCNPRP | -0.701 |
| RRIRIRPPRLPRPRPRPKDPPRP | -0.111 |
| RRIRIRPPRLPRPRPRPKEEPRP | 0.0133 |
| RRIRIRPPRLPRPRPRPKFFPRP | -0.116 |
| RRIRIRPPRLPRPRPRPKGGPRP | 0.04 |
| RRIRIRPPRLPRPRPRPKIQPRP | -0.196 |
| RRIRIRPPRLPRPRPRPKKAPRP | -0.209 |
| RRIRIRPPRLPRPRPRPKKCPRP | -0.0871 |
| RRIRIRPPRLPRPRPRPKLFPRP | -0.179 |
| RRIRIRPPRLPRPRPRPKMIPRP | -0.379 |
| RRIRIRPPRLPRPRPRPKMVPRP | -0.159 |
| RRIRIRPPRLPRPRPRPKNLPRP | -0.0922 |
| RRIRIRPPRLPRPRPRPKNPPRP | -0.439 |
| RRIRIRPPRLPRPRPRPKPAPRP | 0.243 |
| RRIRIRPPRLPRPRPRPKPYPRP | -0.24 |
| RRIRIRPPRLPRPRPRPKRFPRP | 0.276 |
| RRIRIRPPRLPRPRPRPKTPPRP | -0.0573 |
| RRIRIRPPRLPRPRPRPKYVPRP | -0.134 |
| RRIRIRPPRLPRPRPRPLAGPRP | 0.00712 |

| Sequence | shrunken log2 fold change |
| --- | --- |
| RRIRIRPPRLPRPRPRPLAKPRP | -0.346 |
| RRIRIRPPRLPRPRPRPLCNPRP | -0.807 |
| RRIRIRPPRLPRPRPRPLEEPRP | 0.073 |
| RRIRIRPPRLPRPRPRPLFLPRP | -0.653 |
| RRIRIRPPRLPRPRPRPLFNPRP | -1.02 |
| RRIRIRPPRLPRPRPRPLGHPRP | -0.425 |
| RRIRIRPPRLPRPRPRPLIHPRP | -0.556 |
| RRIRIRPPRLPRPRPRPLKHPRP | -0.58 |
| RRIRIRPPRLPRPRPRPLLNPRP | -0.731 |
| RRIRIRPPRLPRPRPRPLMCPRP | -0.164 |
| RRIRIRPPRLPRPRPRPLMHPRP | -0.384 |
| RRIRIRPPRLPRPRPRPLMRPRP | 0.466 |
| RRIRIRPPRLPRPRPRPLPMPRP | -0.204 |
| RRIRIRPPRLPRPRPRPLPVPRP | 0.094 |
| RRIRIRPPRLPRPRPRPLQCPRP | 0.0339 |
| RRIRIRPPRLPRPRPRPLQIPRP | -0.165 |
| RRIRIRPPRLPRPRPRPLQWPRP | -0.013 |
| RRIRIRPPRLPRPRPRPLQYPRP | -0.591 |
| RRIRIRPPRLPRPRPRPLRIPRP | -0.346 |
| RRIRIRPPRLPRPRPRPLRPPRP | 0.583 |
| RRIRIRPPRLPRPRPRPLSPPRP | 1.35 |
| RRIRIRPPRLPRPRPRPLVFPRP | -0.348 |
| RRIRIRPPRLPRPRPRPLVGPRP | -0.0442 |
| RRIRIRPPRLPRPRPRPLVRPRP | 0.0548 |
| RRIRIRPPRLPRPRPRPMCRPRP | -0.236 |

| Sequence | shrunken log2 fold change |
| --- | --- |
| RRIRIRPPRLPRPRPRPMEAPRP | -0.0793 |
| RRIRIRPPRLPRPRPRPMEQPRP | -0.00783 |
| RRIRIRPPRLPRPRPRPMESPRP | -0.00136 |
| RRIRIRPPRLPRPRPRPMFMPRP | -0.383 |
| RRIRIRPPRLPRPRPRPMGNPRP | 0.0077 |
| RRIRIRPPRLPRPRPRPMHKPRP | -0.431 |
| RRIRIRPPRLPRPRPRPMHWPRP | -0.194 |
| RRIRIRPPRLPRPRPRPMIRPRP | -0.511 |
| RRIRIRPPRLPRPRPRPMMQPRP | -0.0907 |
| RRIRIRPPRLPRPRPRPMNCPRP | 0.0904 |
| RRIRIRPPRLPRPRPRPMNYPRP | -0.0706 |
| RRIRIRPPRLPRPRPRPMQCPRP | -0.235 |
| RRIRIRPPRLPRPRPRPMRLPRP | 0.0554 |
| RRIRIRPPRLPRPRPRPMSDPRP | -0.102 |
| RRIRIRPPRLPRPRPRPMSKPRP | -0.332 |
| RRIRIRPPRLPRPRPRPMSYPRP | 0.0721 |
| RRIRIRPPRLPRPRPRPMVHPRP | -0.0468 |
| RRIRIRPPRLPRPRPRPMWCPRP | -0.168 |
| RRIRIRPPRLPRPRPRPMYFPRP | -0.609 |
| RRIRIRPPRLPRPRPRPMYGPRP | -0.437 |
| RRIRIRPPRLPRPRPRPNAHPRP | -0.0997 |
| RRIRIRPPRLPRPRPRPNAIPRP | -0.204 |
| RRIRIRPPRLPRPRPRPNAKPRP | 0.0022 |
| RRIRIRPPRLPRPRPRPNAVPRP | -0.266 |
| RRIRIRPPRLPRPRPRPNGEPRP | -0.0757 |

— the supplement of paper PMC9112550, “Optimization of the antimicrobial peptide Bac7 by deep mutational scanning” (BMC Biology, 2022)
